Measured values taken from patent US20130022551A1 (TRUSTEES OF BOSTON UNIVERSITY, published 2013).

Assays:
[1] = target: T1, human dual endothelin-1/VEGF signal peptide receptor (hDEspR) (human) (UniProt B0L3A2); assay: cell-based or functional assay
T1 sequence: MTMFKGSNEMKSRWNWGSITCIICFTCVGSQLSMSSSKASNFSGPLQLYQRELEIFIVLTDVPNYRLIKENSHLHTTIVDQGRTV

rat DEspR (rat) = rat DEspR (rat) (UniProt D3ZGZ6); assay: in vivo contrast-enhanced ultrasound of carotid arteries, pre-/post-destruction difference, isotype control microbubbles in Tg25+ rats
[2] = target: T1, human dual endothelin-1/VEGF signal peptide receptor (hDEspR) (human); assay: microbubble adherence to HUVECs, isotype control at 800× MB to cell ratio
[3] = target: T2, human dual endothelin-1/VEGF signal peptide receptor (hDEspR) (human, UniProt B0L3A2 1-85); assay: cell-based or functional assay
T2 sequence: T1 sequence

[4] = target: T3, antigenic hDEspR 9-aa peptide, NH2-terminal 9 amino acids of hDEspR (human); assay: indirect ELISA, free hDEspR 9-aa peptide coated on the plate, hybridoma supernatant at 1 ug/ml in two-fold serial dilutions (1 = 1/2 ... 12 = 1/4096), HRP anti-IgG, OD450
T3 construct: Free peptide coated directly on ELISA wells; The KLH conjugate was used only for immunisation; also called DEspR(1-9)
T3 peptide: MTMFKGSNE
Method: Monoclonal antibody characterization by ELISA and Western blot analysis. The M₁[…]₉ antigenic peptide was coated directly on wells of a microtiter plate. Appropriate dilutions of primary antibodies were incubated at 37° C. for 1 hr. The wells were then incubated with HRP labeled anti-IgG (SIGMA cat#A0168) at 1:9000 at 37° C. for 1 hr. The reactions were visualized by the addition of 3,3′5,5′-tetramethylbenzidine substrate (incubation at 37° C. for 10 min) and read spectrophotometrically at 450 nm. Western blot analysis was done as described using equal amounts of whole cell protein extract (40 μg) from Cos1 cell transfectants stably expressing hDEspR[17] and corresponding candidate monoclonal antibodies raised against hDEspR specific synthetic peptide. Immunoreactive hDEspR (10 kDa polypeptide) was detected by chemiluminescence using the ECL Western Detection kit (GE Healthcare).

endothelin-1 (ET1) (from UniProt P05305 53-73) (ligand)
BRCA1 S1497 phosphorylation, % change from control (antibody microarray, Cos1-hDEspR, 30 min, 10 nM) [1]: 32 % CFC | CDK1/2 T14/Y15 phosphorylation, % change from control [1]: 53 % CFC | CDK1/2 Y15 phosphorylation, % change from control [1]: 281 % CFC | ERK1/2 T202 + Y204; T185 + Y187 phosphorylation, % change from control [1]: 135 % CFC | FAK S722 phosphorylation, % change from control [1]: 55 % CFC | FAK S732 phosphorylation, % change from control [1]: 62 % CFC | FAK panspecific (expression), % change from control [1]: 205 % CFC | Met panspecific (expression), % change from control [1]: 384 % CFC | PCNA panspecific (expression), % change from control [1]: -47 % CFC | PKCa T638/T641 phosphorylation, % change from control [1]: 137 % CFC | PKCe panspecific (expression), % change from control [1]: 103 % CFC | Raf1 S259 phosphorylation, % change from control [1]: 12 % CFC | SHP2 S576 phosphorylation, % change from control [1]: 14 % CFC | STAT1 S727 phosphorylation, % change from control [1]: 86 % CFC | STAT1 Y701 phosphorylation, % change from control [1]: 95 % CFC | STAT3 S727 phosphorylation, % change from control [1]: 133 % CFC | Shc1 (ShcA) Y349, Y350 phosphorylation, % change from control [1]: 9 % CFC | Smad 1/5/9 S463 + S465/S465 + S467 phosphorylation, % change from control [1]: 18 % CFC | Src Y418 phosphorylation, % change from control [1]: -11 % CFC | Src Y529 phosphorylation, % change from control [1]: -20 % CFC

control isotype-targeted microbubbles (MBC)
Contrast intensity signal Δ (rat DEspR (rat)): 1.9 | % of HUVECs bound [2]: 6.8%

B1: anti-hDEspR 7C5B2 monoclonal antibody (antibody, IgG2b, V domains shown)
VH: QVQLKESGPGLVAPSQSLSITCTVSGFSLTSYDISWIRQPPGKGLEWLGVIWTGGGTNYNSAFMSRLSISKDNSKSQVFLKMNSLQTDDTAIYYCVRDRDYDGWYFDVWGAGTTVTVSS
VL: DVLMTQTPLSLPVSLGDQASISCRSSQSIVHSNGNTYLEWYLQKPGQSPKLLIYKVSNRFSGVPDRFSGSGSGTDFTLKISRVEAEDLGVYYCFQGSHVPYTFGGGTKLEIK
notes: Tested as hybridoma supernatant and as purified antibody; also called 7C5B2 antibody; 7C5B2 anti-DEspR antibody
EC50, inhibition of MDA-MB-468 tumor cell invasiveness [3]: 3.55 nM | EC50 for # branching points, inhibition of serum-induced HUVEC tubulogenesis [3]: 3.97 nM | EC50 for total tube length, inhibition of serum-induced HUVEC tubulogenesis [3]: 4.34 nM | binding result [4]: binds
